The values that follow come from the supplement of paper PMC12042874.

The nature of this series: amyloid nucleation score (Sup35N fusion, yeast selection) (log enrichment); library NNK2; higher = more nucleation; inactive = no reads after selection. An outline of the steps: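 After 24 hours of induction with 100 μM copper sulfate, psi-negative yeast expressing peptides of 20 random codons fused to Sup35N were grown for 7 days at 30°C on medium lacking adenine and uracil. Input and output plasmid inserts were sequenced with Illumina, and sequences with under 100 input reads were discarded. Scores for nucleation are the DiMSum log enrichment of output over input reads, centred on the mode score of non-aggregating sequences.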

± gives the uncertainty stated by the source.

RTYEMVIKFSGSLVRAFRVL: the amyloid nucleation score was -0.068 ± 0.79.

The substance FCLLPIDQPVTGIFLVR yielded an amyloid nucleation score of -0.158 ± 0.63. On to RVGSFG, for which the amyloid nucleation score stood at 0.596 ± 0.4.

For the substance FYINVRLYARVACRCMRVPC, the amyloid nucleation score was 5.4 ± 0.076.

With FGICLVMRFLWYESSTPWED, the amyloid nucleation score is -0.446 ± 1. Consider ELGFGMMIAPSKGEKGDGML, for which the amyloid nucleation score turned out to be 3.37 ± 0.12. The same measure for INCSAFNHCIYSSPT: 2.82 ± 0.082; for DLGMECTQVGRLDVVWELLI: 0.632 ± 0.31. The same measure for VQIKLRQFTNKAFYTESMST: -0.053 ± 0.63; for YTLNPGFHHRFCVWTA: “inactive”. The value for STWLS was -0.626 ± 1.1; that for GHLRVFGVAKKLSTIMNLAR was -0.274 ± 0.45. In turn, WTYACPKRHNVIVVC had an amyloid nucleation score of 3 ± 0.062.

On to LTIVLQLGLL, for which the amyloid nucleation score was 8.52 ± 0.066. The same measure for SLIGTRLIGAAGISSVKRLY: 0.208 ± 0.46; for CCFVLTVR: 5.174 ± 0.035; for ITRSGWDFYLS: 0.687 ± 0.49. The same measure for RVFLSGSWSTHGNFCRLRNV: -0.449 ± 0.41. In turn, YTEGAWVRVSDYRE registered an amyloid nucleation score of -0.565 ± 0.29. The same measure for SLKTVAFHSEMFFCSTLVDM: 0.153 ± 0.8; for RSSSCSNVMMVE: 0.935 ± 0.34; for FNMFWVLGFTSRGTRGYSTS: 3.9 ± 0.051. The same measure for FFMIEMPVKSTFVGWSRSEG: -0.074 ± 0.25. The value for IMEYAPLYFIMF was 4.16 ± 0.069. Substance VMLRYNSYGNYLLRWHTDDA had an amyloid nucleation score of -0.843 ± 0.44.

With VLSPQVKRSHTFLGNDLRTD, the amyloid nucleation score was found to be 4.64 ± 0.072. The substance ICCGVEHWYVIGFNVGSFYF came in with an amyloid nucleation score of 7.964 ± 0.039. The value for GQVRSFCTGEG was -0.677 ± 1; that for PSLWFLCRYGVTSIGLVFTL was -0.159 ± 1.1; that for VFMGNSLHFRRSTVAHWRSN was 1.39 ± 0.41. The substance STQLDSKILINLRFFRMSIV showed an amyloid nucleation score of -0.081 ± 1.1. For RSLHFFTSMHMCGRCLNRLF, the amyloid nucleation score worked out at 0.048 ± 0.45.

As to LYRTYLYTDYFTKMHV, the amyloid nucleation score is -1.16 ± 0.76. The same measure for SLKANYGWLISNAWDMFHLG: -0.467 ± 0.74; for KPSKYPVYLLGVVKVQVDYD: -0.849 ± 1.1.

Consider TTVDSNIRAYIFKVARYHYK, for which the amyloid nucleation score is -0.488 ± 1. The same measure for AIVSMFGVITY: -2.57 ± 0.62; for RSLCDL: -0.755 ± 0.54. The value for ELDGYLVLFFTGLNP was -0.418 ± 0.63; that for LSINSFTKHQ was 0.148 ± 1; that for DVYTQASLGMS was “inactive”. The same measure for GCTGGRIK: -0.088 ± 0.49; for SCRSIRYEWRHDTVGRRSTR: 3.2 ± 0.064. Turning to VKRYDS, the amyloid nucleation score result was “inactive”. On to TISIFGM, for which the amyloid nucleation score was -0.325 ± 0.33. The value for TVLCTRRLAWRYRLHFFFQ was 3.16 ± 0.073; that for AGTFKRWPLGYECFVSERIG was -0.803 ± 0.49. The same measure for ISGSRWRLGAIVGTVVEAFG: -0.049 ± 0.76. The value for TSLGGWVLERRCLPDAADMR was 1.2 ± 0.31; that for SLTTLTAVHSCFRLNAWLYF was 0.477 ± 0.29; that for VTHNYKFIQLGSEK was 4.12 ± 0.074. Regarding ETHFVTKDLASSLGKLAHPY, the amyloid nucleation score was 8.848 ± 0.069. The same measure for WMSVG: -0.081 ± 1.1; for TGYFTARNSAEVKRHVNLKR: 0.169 ± 0.8. The value for NPRFLDRCYLYYPGSASRVA was “inactive”.

The substance GDYSCVHQVRKIDM came in with an amyloid nucleation score of 0.162 ± 0.18. The value for TYSTSSLYRMEIHLAFSASV was -0.22 ± 1; that for WRGFTECRVKLRYSGSGQFC was 2.92 ± 0.058.
